Read-outs that look alike come from different tables or passages of the source.
Legend:
7D12-(GGGS)4-9G8 [1] = biological target: 7D12-(GGGS)4-9G8 (llama); assay: SPR (Biacore), 25 °C
9G8-GS-7D12 = 9G8-GS-7D12 (llama); assay: SPR (Biacore), 25 °C
7D12-(GGGS)4-9G8 [2] = biological target: 7D12-(GGGS)4-9G8 (llama); assay: SPR (Biacore), 25 °C; remark: listed apart in the source
[3] = biological target: 7D12-(E4K4)5-VSG-[-AA]9G8; assay: SPR, murine EGFR-Fc
[4] = biological target: 7D12-ITA-(E4K4)4-IGG-[-AA]9G8 (llama); assay: SPR, murine EGFR-Fc
[5] = biological target: 7D12-FAS-(AP)11-VGG-[-AA]9G8 (llama); assay: SPR, murine EGFR-Fc

- Kd (7D12-(GGGS)4-9G8 [1]): 160 nM
- Kd (9G8-GS-7D12): 58 nM
- Kd (7D12-(GGGS)4-9G8 [2]): 160 nM
- Kd [3]: 2.6 nM
- Kd [4]: 0.7 nM
- Kd [5]: 0.6 nM
B1: Mouse EGFR-Fc (Fc fusion, UniProt Q01279 25-647, looked up)
chain: LEEKKVCQGTSNRLTQLGTFEDHFLSLQRMYNNCEVVLGNLEITYVQRNYDLSFLKTIQEVAGYVLIALNTVERIPLENLQIIRGNALYENTYALAILSNYGTNRTGLRELPMRNLQEILIGAVRFSNNPILCNMDTIQWRDIVQNVFMSNMSMDLQSHPSSCPKCDPSCPNGSCWGGGEENCQKLTKIICAQQCSHRCRGRSPSDCCHNQCAAGCTGPRESDCLVCQKFQDEATCKDTCPPLMLYNPTTYQMDVNPEGKYSFGATCVKKCPRNYVVTDHGSCVRACGPDYYEVEEDGIRKCKKCDGPCRKVCNGIGIGEFKDTLSINATNIKHFKYCTAISGDLHILPVAFKGDSFTRTPPLDPRELEILKTVKEITGFLLIQAWPDNWTDLHAFENLEIIRGRTKQHGQFSLAVVGLNITSLGLRSLKEISDGDVIISGNRNLCYANTINWKKLFGTPNQKTKIMNNRAEKDCKAVNHVCNPLCSSEGCWGPEPRDCVSCQNVSRGRECVEKCNILEGEPREFVENSECIQCHPECLPQAMNITCTGRGPDNCIQCAHYIDGPHCVKTCPAGIMGENNTLVWKYADANNVCHLCHANCTYGCAGPGLQGCEVWPSGPKIPS
notes: also called muEGFR; murine EGFR-Fc; not shown: Fc part, not described

Source: patent US20250199010A1 (ALAMAR BIOSCIENCES, published 2025)
